B1: modified version of TCR 5 (TCR, V domains shown)
V domain 1: AQKITQTQPGMFVQEKEAVTLDCTYDTSDQSYGLFWYKQPSSGEMIFLIYQGSYDEQNATEGRYSLNFQKARKSANLVISASQLGDSAMYFCAMREGTGTSYGKLTFGQGTILTVHP
V domain 2: DVKVTQSSRYLVKRTGEKVFLECVQDMDHENMFWYRQDPGLGLRLIYFSYDVKMKEKGDIPEGYSVSREKKERFSLILESASTNQTSMYLCASSPWGETHQPQHFGDGTRLSILE
B2: TCR 27 (codon-optimized, cysteine-modified) (TCR, V domains shown)
V domain 1: DAKTTQPNSMESNEEEPVHLPCNHSTISGTDYIHWYRQLPSQGPEYVIHGLTSNVNNRMASLAIAEDRKSSTLILHRATLRDAAVYYCILRVPPQSGGYQKVTFGTGTKLQVIP
V domain 2: NAGVTQTPKFQVLKTGQSMTLQCAQDMNHNSMYWYRQDPGMGLRLIYYSASEGTTDKGEVPNGYNVSRLNKREFSLRLESAAPSQTSVYFCASSEFGSLNEKLFFGSGTQLSVLE
B3: TCR 24 (codon-optimized, cysteine-modified) (TCR, V domains shown)
V domain 1: B1 V domain 1 with T98R, T100D, Y102W, T106Q, Q109A, I112Q, L113V, T114V, H116T
V domain 2: DVKVTQSSRYLVKRTGEKVFLECVQDMDHENMFWYRQDPGLGLRLIYFSYDVKMKEKGDIPEGYSVSREKKERFSLILESASTNQTSMYLCASSPFGRGSYEQYFGPGTRLTVTE
B4: TCR 23 (codon-optimized, cysteine-modified) (TCR, V domains shown)
V domain 1: AQKITQTQPGMFVQEKEAVTLDCTYDTSDQSYGLFWYKQPSSGEMIFLIYQGSYDEQNATEGRYSLNFQKARKSANLVISASQLGDSAMYFCAMSPPGGSARQLTFGSGTQLTVLP
V domain 2: B1 V domain 2 with E98Q, T99S, H100N
B5: TCR 17 (codon-optimized, cysteine-modified) (TCR, V domains shown)
V domain 1: AQKITQTQPGMFVQEKEAVTLDCTYDTSDPSYGLFWYKQPSSGEMIFLIYQGSYDQQNATEGRYSLNFQKARKSANLVISASQLGDSAMYFCAMREGRGDKIIFGKGTRLHILP
V domain 2: B1 V domain 2 with P95L, E98R, T99S, H100N
B6: TCR 18 (codon-optimized, cysteine-modified) (TCR, V domains shown)
V domain 1: KQEVTQIPAALSVPEGENLVLNCSFTDSAIYNLQWFRQDPGKGLTSLLLIQSSQREQTSGRLNASLDKSSGRSTLYIAASQPGDSATYLCAEGNAGGTSYGKLTFGQGTILTVHP
V domain 2: B3 V domain 2 with P95F, F96W, G99S, S100N, Y101S, E102P, Q103L, Y104H, P107N
B7: modified version of TCR 14 (TCR)
TCR alpha: ILNVEQSPQSLHVQEGDSTNFTCSFPSSNFYALHWYRWETAKSPEALFVMTLNGDEKKKGRISATLNTKEGYSYLYIKGSQPEDSATYLCASQTGANNLFFGTGTRLTVIPYIQNPDPAVYQLRDSKSSDKSVCLFTDFDSQTNVSQSKDSDVYITDKCVLDMRSMDFKSNSAVAWSNKSDFACANAFNNSIIPEDTFFPSPESSCDVKLVEKSFETDTNLNFQNLSVIGFRILLLKVAGFNLLMTLRLWSS
TCR beta: DVKVTQSSRYLVKRTGEKVFLECVQDMDHENMFWYRQDPGLGLRLIYFSYDVKMKEKGDIPEGYSVSREKKERFSLILESASTNQTSMYLCASTFWGQRRTEAFFGQGTRLTVVEDLNKVFPPEVAVFEPSEAEISHTQKATLVCLATGFFPDHVELSWWVNGKEVHSGVCTDPQPLKEQPALNDSRYCLSSRLRVSATFWQNPRNHFRCQVQFYGLSENDEWTQDRAKPVTQIVSAEAWGRADCGFTSVSYQQGVLSATILYEILLGKATLYAVLVSALVLMAMVKRKDF
B8: modified version of TCR 13 (TCR)
TCR alpha: AQSVTQLDSHVSVSEGTPVLLRCNYSSSYSPSLFWYVQHPNKGLQLLLKYTSAATLVKGINGFEAEFKKSETSFHLTKPSAHMSDAAEYFCVVRGGKLIFGQGTELSVKPNIQNPDPAVYQLRDSKSSDKSVCLFTDFDSQTNVSQSKDSDVYITDKCVLDMRSMDFKSNSAVAWSNKSDFACANAFNNSIIPEDTFFPSPESSCDVKLVEKSFETDTNLNFQNLSVIGFRILLLKVAGFNLLMTLRLWSS
TCR beta: GAGVSQSPRYKVAKRGQDVALRCDPISGHVSLFWYQQALGQGPEFLTYFQNEAQLDKSGLPSDRFFAERPEGSVSTLKIQRTQQEDSAVYLCASSPTGTERELFFGEGSRLTVLEDLKNVFPPEVAVFEPSEAEISHTQKATLVCLATGFYPDHVELSWWVNGKEVHSGVCTDPQPLKEQPALNDSRYCLSSRLRVSATFWQNPRNHFRCQVQFYGLSENDEWTQDRAKPVTQIVSAEAWGRADCGFTSESYQQGVLSATILYEILLGKATLYAVLVSALVLMAMVKRKDSRG
B9: TCR 21 (codon-optimized, cysteine-modified) (TCR, V domains shown)
V domain 1: AQKITQTQPGMFVQEKEAVTLDCTYDTSDQSYGLFWYKQPSSGEMIFLIYQGSYDEQNATEGRYSLNFQKARKSANLVISASQLGDSAMYFCAMREGRVTGGGNKLTFGTGTQLKVEL
V domain 2: NAGVTQTPKFQVLKTGQSMTLQCAQDMNHNSMYWYRQDPGMGLRLIYYSASEGTTDKGEVPNGYNVSRLNKREFSLRLESAAPSQTSVYFCASRPWGNQNTEAFFGQGTRLTVVE
B10: TCR 22 (codon-optimized, cysteine-modified) (TCR, V domains shown)
V domain 1: GQNIDQPTEMTATEGAIVQINCTYQTSGFNGLFWYQQHAGEAPTFLSYNVLDGLEEKGRFSSFLSRSKGYSYLLLKELQMKDSASYLCAVRARMDSNYQLIWGAGTKLIIKP
V domain 2: DAGVTQSPTHLIKTRGQHVTLRCSPISGHKSVSWYQQVLGQGPQFIFQYYEKEERGRGNFPDRFSARQFPNYSSELNVNALLLGDSALYLCASSRTENYGYTFGSGTRLTVVE
B11: TCR 25 (codon-optimized, cysteine-modified) (TCR, V domains shown)
V domain 1: B9 V domain 1 with R98S, V99L
V domain 2: B1 V domain 2 with P95L, E98Q, T99S, H100N
B12: TCR 28 (codon-optimized, cysteine-modified) (TCR, V domains shown)
V domain 1: RKEVEQDPGPFNVPEGATVAFNCTYSNSASQSFFWYRQDCRKEPKLLMSVYSSGNEDGRFTAQLNRASQYISLLIRDSKLSDSATYLCVVRGGGTSYGKLTFGQGTILTVHP
V domain 2: DVKVTQSSRYLVKRTGEKVFLECVQDMDHENMFWYRQDPGLGLRLIYFSYDVKMKEKGDIPEGYSVSREKKERFSLILESASTNQTSMYLCASSLWGRSSGNTIYFGEGSWLTVVE
B13: TCR 29 (codon-optimized, cysteine-modified) (TCR, V domains shown)
V domain 1: AQKITQTQPGMFVQEKEAVTLDCTYDTSDQSYGLFWYKQPSSGEMIFLIYQGSYDEQNATEGRYSLNFQKARKSANLVISASQLGDSAMYFCAMRLNTGTASKLTFGTGTRLQVTL
V domain 2: DGGITQSPKYLFRKEGQNVTLSCEQNLNHDAMYWYRQDPGQGLRLIYYSQIVNDFQKGDIAEGYSVSREKKESFPLTVTSAQKNPTAFYLCASSPWGRATNEQFFGPGTRLTVLE
B14: TCR 26 (codon-optimized, cysteine-modified) (TCR, V domains shown)
V domain 1: AQKITQTQPGMFVQEKEAVTLDCTYDTSDQSYGLFWYKQPSSGEMIFLIYQGSYDEQNATEGRYSLNFQKARKSANLVISASQLGDSAMYFCAMRDARNNDMRFGAGTRLTVKP
V domain 2: NAGVTQTPKFRVLKTGQSMTLLCAQDMNHEYMYWYRQDPGMGLRLIHYSVGEGTTAKGEVPDGYNVSRLKKQNFLLGLESAAPSQTSVYFCASSYYASGRNYEQYFGPGTRLTVTE
B15: TCR 30 (codon-optimized, cysteine-modified) (TCR, V domains shown)
V domain 1: DAKTTQPPSMDCAEGRAANLPCNHSTISGNEYVYWYRQIHSQGPQYIIHGLKNNETNEMASLIITEDRKSSTLILPHATLRDTAVYYCIVRGTSVLQGNEKLTFGTGTRLTIIP
V domain 2: EPEVTQTPSHQVTQMGQEVILRCVPISNHLYFYWYRQILGQKVEFLVSFYNNEISEKSEIFDDQFSVERPDGSNFTLKIRSTKLEDSAMYFCASSRQPSSGNTIYFGEGSWLTVVE

Where a chain is given by its changes, count along the chain named.

The first assay deals with HLA-A2/E6(29-38) tetramer (human; HPV 16). Put plainly: cell-based or functional assay.
B1: the “% CD8+/IC IFNγ+” value was 43.7%.

In a further assay the target is HLA-A2/E7(11-19) tetramer (human; HPV 16). Kind of assay: cell-based or functional assay.
Consider B1, for which the “% CD8+/IC IFNγ+” value is 7.22%.

The next assay concerns the target T1, HLA-A2/E6(29-38) tetramer (human; HPV 16).
T1 construct: also called E6(29-38) peptide-MHC tetramer; E6 tet
Kind of assay: flow cytometry, tetramer + anti-CD8; transfected Jurkat-derived cells, CD8+ cells. In general terms: In flow cytometry, cells or beads pass a laser one at a time.
Procedure: (§1) For transfection, the CD4+ and CD4+/CD8+ cell mixtures were transiently transfected with TCR-encoding plasmids and 48 hours after transfection, cells were assessed by flow cytometry for (1) binding of the target peptide in the context of an MHC molecule (HLA:A02:01) by staining with an E6(29-38) peptide- or an E7(11-19) peptide-MHC tetramer reagent, and/or (2) CD8+ independent binding of the target by co-staining the tetramer-labeled cells with an anti-CD8 antibody.
As to B2, the “% cells E6 tet+/CD8+ quadrant” value is 24.5% and the “% cells E6 tet+/CD8- quadrant” value came to 0.02%.

Take B3: the “% cells E6 tet+/CD8+ quadrant” value was 29.1% and the “% cells E6 tet+/CD8- quadrant” value came to 0.13%.

Regarding B4, the “% cells E6 tet+/CD8+ quadrant” value is 43.6% and the “% cells E6 tet+/CD8- quadrant” value came out at 0.18%.

For the molecule B5, the “% cells E6 tet+/CD8+ quadrant” value was found to be 34.7% and the “% cells E6 tet+/CD8- quadrant” value came to 0.17%.

For B6, the “% cells E6 tet+/CD8+ quadrant” value is 50.4% and the “% cells E6 tet+/CD8- quadrant” value was 0.045%.

B7: the “% cells E6 tet+/CD8+ quadrant” value was determined as 38.4% and the “% cells E6 tet+/CD8- quadrant” value is 0.04%.

For B8, the “% cells E6 tet+/CD8+ quadrant” value is 38.6% and the “% cells E6 tet+/CD8- quadrant” value amounted to 0.064%.

On to B9, for which the “% cells E6 tet+/CD8+ quadrant” value came to 51.6% and the “% cells E6 tet+/CD8- quadrant” value is 0.22%.

Take B10: the “% cells E6 tet+/CD8+ quadrant” value stood at 51.2% and the “% cells E6 tet+/CD8- quadrant” value is 0.14%.

Another assay addresses T1, HLA-A2/E6(29-38) tetramer. Kind of assay: flow cytometry, tetramer + anti-CD8; transfected mix of CD8- and CD8+ Jurkat-derived cells.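 Further: CD4+ and CD4+/CD8+ cell mixtures transiently given TCR plasmids, analysed 48 h post-transfection by flow cytometry with E6(29-38)–HLA-A*02:01 tetramer plus anti-CD8 antibody co-stain.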
Procedure: as §1
Turning to B2, the “% cells E6 tet+/CD8+ quadrant” value was 15.8% and the “% cells E6 tet+/CD8- quadrant” value came out at 3.5%.

In the case of B11, the “% cells E6 tet+/CD8+ quadrant” value came out at 34% and the “% cells E6 tet+/CD8- quadrant” value is 14.7%.

As for B3, the “% cells E6 tet+/CD8+ quadrant” value was 55% and the “% cells E6 tet+/CD8- quadrant” value is 23.5%.

Consider B4, for which the “% cells E6 tet+/CD8+ quadrant” value worked out at 52.5% and the “% cells E6 tet+/CD8- quadrant” value came to 22.5%.

As for B5, the “% cells E6 tet+/CD8+ quadrant” value is 36.2% and the “% cells E6 tet+/CD8- quadrant” value was 21.3%.

In the case of B6, the “% cells E6 tet+/CD8+ quadrant” value amounted to 23.3% and the “% cells E6 tet+/CD8- quadrant” value was 3.61%.

In the case of B12, the “% cells E6 tet+/CD8+ quadrant” value was 13.1% and the “% cells E6 tet+/CD8- quadrant” value stood at 0.15%.

Turning to B13, the “% cells E6 tet+/CD8+ quadrant” value amounted to 35.6% and the “% cells E6 tet+/CD8- quadrant” value turned out to be 44.5%.

Take B14: the “% cells E6 tet+/CD8+ quadrant” value was 42.3% and the “% cells E6 tet+/CD8- quadrant” value turned out to be 47.4%.

B15: the “% cells E6 tet+/CD8+ quadrant” value came to 31% and the “% cells E6 tet+/CD8- quadrant” value was determined as 0.74%.

For B9, the “% cells E6 tet+/CD8+ quadrant” value was 28.8% and the “% cells E6 tet+/CD8- quadrant” value was found to be 32.7%.

For the origin of these results see patent US20210284709A1 (JUNO THERAPEUTICS, published 2021).
